Columns and labels:
[1] = test system: primary human pan T cells; test: Cytokine production following PD-L1-dependent costimulation; assay type: cell-based; conditions: mitomycin-c treated K562/OKT3/PDL1 aAPC; FIG. 6
MC38 hPD-L1 tumor cells = test: Flow cytometry of tumors and draining lymph nodes of treated mice; assay type: in vivo, mouse; conditions: three days following the 2nd dose; vs Fc control or anti-PD-L1
From the text: Tissues were processed to single cell suspensions (tumors were enzymatically digested as a part of the processing, whereas draining LN were not), and subjected to multi-color flow cytometric analysis of CD8+ T cells on the CD45+ cell subset (immune cells in either the LN or tumor), as well as % hIgG+ staining on the CD45− cell subset (tumor cells) to detect molecules (CD80-IgV-Fc or anti-PD-L1) bound to the tumor cells.

[2] = test system: PBMC obtained from CMV seropositive donor; test: Cytomegalovirus (CMV) antigen-specific T cell functional assay; assay type: cell-based, human
Protocol: Peripheral blood mononuclear cells (PBMC) obtained from CMV seropositive donor were thawed and CMV lysate added at 1 μg/mL to 250,000/well PBMC. […] In addition, the anti-PD-1 antibody alone was also tested. An Fc only molecule was also tested as control. Supernatant was collected 48 hours after incubation to assay IL-2 by ELISA.
The multivalent variant CD80 IgSF domain fusion proteins were assessed to test for IL-2 production in the CMV assay substantially as described in Example 22. Exemplary multivalent variant CD80 IgSF domain fusion proteins generated as described above were tested at various concentrations from 100000 pM to 46 pM

[3] = test system: huPD-L1-expressing MC38 tumors; test: huPD-L1 MC38 tumor model, IP or IT delivery; assay type: in vivo, mouse
Protocol: The MC38 cell line was transduced with human PD-L1 (huPD-L1) Subconfluent cells (˜80% confluent) were harvested on the day of implantation (study day 0), washed twice and brought to a final concentration of 15×10^6 cells/mL in DPBS. Female C57BL/6NJ mice (Jackson Labs, USA) were implanted subcutaneously with approximately 1.5×10^6 cells (0.1 mL) in the right mid-flank region.
On day 7, mice were randomized into six groups, with each group having a similar mean tumor volume (46.6 mm^3).
Tumor volume was measured as described in Example 21 to assess anti-tumor activity. Median tumor growth curves among individual treated mice over time were plotted.
On day 11 post-tumor cell implant and prior to dosing of test articles, five mice from each of Group 1-4 and Group 6 were sacrificed, and the tumors were harvested, weighed and processed for ex vivo tumor analysis. The MC38 cells at time of implant and tumors harvested from a subset of mice on day 11 by enzymatic digestion were evaluated for expression of huPD-L1 or human IgG (to detect Fc of cell-bound test molecules) by flow cytometry. The percent positive and median fluorescent intensity (MFI) of huPD-L1 and huIgG were quantified on the CD45-negative subset of tumor cells.
Tumors at day 11 were also evaluated for CD8+ T cells and for antigen-specific CD8+ T cells within the CD3+ cell population. p15E is an MHC class I restricted T cell antigen expressed in the MC38 tumor cell lines derived from C57BL/6 mice. A mouse MHC class I p15E tetramer labeled with PE (MBL International Corp.) was used to detect the p15E-MHC class I restricted T cell receptor.

Mouse PK model = assay type: in vivo; conditions: mouse PK model estimate
From the text: (§1) A PK model was designed as a two compartment model with intercompartmental distribution (Q) between the first compartment (Central Compartment, V1) and the second compartment (Peripheral Compartment, V2). To capture intraperitoneal (IP) or subcutaneous (SC) injection routes, a third compartment (Depot Compartment) was included with a first-order rate constant (Ka) linking the third compartment uni-directionally to the first compartment. The model also included a constant F to account for loss in the amount of drug available to diffuse from the third compartment (Depot Compartment) to the first compartment (Central Compartment, V1) due to IP or SC injection. The total amount of available drug in the third compartment (Depot Compartment) is described as F×Dose. For intravenous injections (IV), the third compartment (Depot Compartment) was omitted.
Drug clearance (CL) from the first compartment (Central Compartment, V1) was modeled differently for each species. In the mouse model, a time-dependent increase in clearance due to the formation of anti-drug antibodies was accounted for as follows:
(§2) For monkeys, linear clearance from the first compartment (Central Compartment, V1) was assumed.
PK was also compared in tumor-bearing versus non-tumor-bearing mice. […] All treatments were administered IP. PK was determined in tumor-bearing mice in all groups and compared to the predicted PK in non-tumor bearing mice.

Monkey PK model = assay type: in vivo, cynomolgus monkey; conditions: monkey PK model estimate
From the text: as §1, §2

huPD-L1/MC38 cells = test: huPD-L1 MC38 tumor model, combination with anti-CTLA-4; assay type: in vivo, mouse
Protocol: Eight-week old female C57/BL6NJ mice (The Jackson Laboratories, Sacramento, Calif.) were implanted subcutaneously with 1.5×10^6 huPD-L1/MC38 cells (described in Example 27. On days 8, 11 or 14 post-tumor cell implant mice, the tested molecules were delivered through intraperitoneal (IP) injection as set forth in Table E40. Tumor volume was determined substantially as described in Example 27.

[4] = test system: human PD-L1-transduced MC38 tumor; test: huPD-L1 MC38 tumor model, combination with anti-PD-L1 or anti-CD28 blocking antibodies; assay type: in vivo, mouse
Protocol: Anti-tumor activity was evaluated by serial tumor measurements.

CD28 = CD28 (Homo sapiens, UniProt P10747); test: Jurkat/IL2 + K562/OKT3/PD-L1 reporter assay; assay type: cell-based; parameters: host or cells: Jurkat cells expressing an IL-2-luciferase reporter; conditions: IgV-Fc (inert); various concentrations; FIG. 5

Substance: H18Y/A26E/E35D/M47L/V68M/A71G/D90G: variant CD80 IgV-Fc (inert), IgV SEQ ID NO:491
- IL-2 secretion in culture supernatants [1]: resulted in IL-2 secretion in culture supernatants
- percentages of CD8+ T cells in TIL and LN (MC38 hPD-L1 tumor cells): significantly greater
- IL-2 production ([2]; alone, 48 hours, FIG. 23): showed augmentation of IL-2 production compared to the Fc only control
- IL-2 production ([2]; in combination with 50 nM anti-PD-1 antibody (nivolumab)): greater increase in IL-2 production compared to levels of IL-2 production in the presence of either molecule alone
- percent of p15E-specific CD8+ T cells in tumors ([3]; 500 or 1500 μg IP or 100 μg IT, day 11): significantly greater percent of p15E-specific CD8+ T cells as compared to Fc control-treated mice
- anti-tumor growth activity ([3]; IT injection 100 μg on days 8, 11 and 14): substantial anti-tumor growth activity
- anti-tumor activity (tumor volume) ([3]; single IP injection 100, 500, 1500 μg): dose-dependent increase in anti-tumor activity compared to Fc control treatment
- CL (Mouse PK model): 1.34 mL/day
- F (Mouse PK model): 99%
- Ka (Mouse PK model): 4.53 day⁻¹
- Q (Mouse PK model): 26.5 mL/day
- V1 (Mouse PK model): 1.94 mL
- V2 (Mouse PK model): 8.88 mL
- β (Mouse PK model; time-dependent clearance constant): 0.0685 day⁻¹
- CL (Monkey PK model): 1.31 mL/h/kg
- F (Monkey PK model): 66.4%
- Ka (Monkey PK model): 0.728 day⁻¹
- Q (Monkey PK model): 4.37 mL/h/kg
- V1 (Monkey PK model): 0.0509 L/kg
- V2 (Monkey PK model): 0.158 L/kg
- tumor growth over time (huPD-L1/MC38 cells; in combination with anti-CTLA-4): significantly greater reduction in tumor growth over time was observed than with either agent alone
- antitumor activity (huPD-L1/MC38 cells; monotherapy): had potent antitumor activity
- antitumor activity ([4]; coadministration with anti-CD28 or anti-PD-L1): coadministration with either anti-CD28 or anti-PD-L1 reduced the antitumor activity
- antitumor activity ([4]; monotherapy 100 μg IP): demonstrated activity superior to PD-L1 blockade alone
- PD-L1 dependent CD28 costimulation (luciferase activity) (CD28): induced PD-L1 dependent CD28 costimulation in a dose-dependent manner

— patent publication US20220177587A1, “METHODS AND USES OF VARIANT CD80 FUSION PROTEINS AND RELATED CONSTRUCTS” (Alpine Immune Sciences, Inc., priority 2018, published 2022)
